The values below come from the nanobody polyreactivity screen of Harvey et al. (2022).

This data set can be described thus: yeast display, Sf9 membrane polyspecificity reagent, FACS + sequencing; frameworks hold sequencing errors. The method, boiled down: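 Nanobodies came from a synthetic yeast display library in Saccharomyces cerevisiae BJ5465, induced with galactose for 36–48 hours and stained for 1 hour at 4 °C with 10% biotinylated, detergent-solubilized Sf9 membrane reagent. Cells were enriched on streptavidin microbeads and then FACS-sorted, with low and high (top ~1%) gates set on anti-HA fluorescence for expression and streptavidin fluorescence for reagent binding. Each polyreactivity label reflects the gate a clone came from. Genes were amplified by colony PCR, sequenced by MiSeq 2 × 250 and filtered by CDR length.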
Regarding “QVQLVESGGGLVQAGGSLRLSCAASGSIFVRNVMGLYRQAPGKERELVATIRYRGGSTYYADSVKGRFSISRDNAKNTVYLQMNSLKPEDTAVYYCNARYLWADEYYYWGQGTQVTVSS”, the “polyreactivity (PSR sort gate)” value is reported as “low polyreactivity”.

As to “QVQLVESGGGLVQAGGSLRLSCAASGSIFVRYAMGWYRQAPGKERELVAAFTSSAGSTYYADSVKGRFTISRDNAKNTVYLQMNSLKPEDTAVYYCAAVRYYPSKFYYWGQGTQVTVSS”, the “polyreactivity (PSR sort gate)” value is on record as “high polyreactivity”.

For the sequence “QVQLVESGGGLVQAGGSLRLSCAASGSIFVSNAMGWYRQAPGKERELVAAISYSTSRTYYADSVKGRFTISRDNAKNTVYLQMNSLKPEDTAVYYCAVRVRVADGRSNYWGQGTQVTVSS”, the “polyreactivity (PSR sort gate)” value is “high polyreactivity”.

Turning to “QVQLVESGGGLVQAGGSLRLSCAASGSIFVTNAMGWYRQAPGKEREWVAAISVSGGSTYYADSVKGRFTISRDNAKNTVYLQMNSLKPEDTAVYYCAAPGRLFSLYDYWGQGTQVTVSS”, the “polyreactivity (PSR sort gate)” value was “low polyreactivity”.

On to “QVQLVESGGGLVQAGGSLRLSCAASGSIFVTYAMGWYRQAPGKERELVAVITWGGGSTYYADSVKGRFTISRDNAKNTVYLQMNSLKQEDTAVYYCAKDAFFTEIAIRDHIISHHYYWGQGTQVTVSS”, for which the “polyreactivity (PSR sort gate)” value was “low polyreactivity”.

Turning to “QVQLVESGGGLVQAGGSLRLSCAASGSIFVTYGMGWYRQAPGKERELVARITTSGGSTYYADSVKGRFTISRDNAKNTVYLQMNSLKQEDTAVYYCNVRFAWGWTYWRYDYWGQGTQVTVSS”, the “polyreactivity (PSR sort gate)” value is “high polyreactivity”.

Consider “QVQLVESGGGLVQAGGSLRLSCAASGSIFVVNAMGWYRQAPGKERELVAGISFRGGTTYYADSVKGRFTISRDNAMNTVYLQMNSLKPEDTAVYYCNAVYTSNRNEYDYWGQGTQVTVSS”, for which the “polyreactivity (PSR sort gate)” value is recorded as “low polyreactivity”.

For the sequence “QVQLVESGGGLVQAGGSLRLSCAASGSIFVVYAMGWYRQAPGKERELVAGISDGDNTNYADSVKGRFTISRDNAKNTVYLQMNSLKPEDTAVYYCNADGTSRNLEGFDYWGQGTQVTVSS”, the “polyreactivity (PSR sort gate)” value was “low polyreactivity”.

With “QVQLVESGGGLVQAGGSLRLSCAASGSIFVWYAMGWYRQAPGKERELVARITSGGRTNYADSVKGRFTISRDNAKNTVYLQMNSLKPEDTAVYDCAAGRVSWSPYYYWGQGTQVNVSS”, the “polyreactivity (PSR sort gate)” value is reported as “high polyreactivity”.

Take “QVQLVESGGGLVQAGGSLRLSCAASGSIFVWYVMGWYRQAPGKERELVAVISRSGGSTYYADSVKGRFTISRDNAKNTVYLQMNSLKPEDTAVYYCAADSRSYYRDVDYWGQGTQVTVSS”: the “polyreactivity (PSR sort gate)” value is reported as “low polyreactivity”.

For “QVQLVESGGGLVQAGGSLRLSCAASGSIFVYNAMGRYRQAPGKERELVAAISRSGASTYYADSVKGRFTISRDNAKNTVYLQMNSLKPEDTAVYYCAAEFRQGGYTFGYWGQGTQVTVSS”, the “polyreactivity (PSR sort gate)” value was “high polyreactivity”.

For “QVQLVESGGGLVQAGGSLRLSCAASGSIFVYNAMGWYRQAPGKEREFVAAITKRVGRTYYADSVKGRFTISRDNAKNTVYLQMNSLKPEDTAVYYCAAVLSYTGGFDYWGQGTQVTVSS”, the “polyreactivity (PSR sort gate)” value is “high polyreactivity”.

In the case of “QVQLVESGGGLVQAGGSLRLSCAASGSIFVYNAMGWYRQAPGKERELVAAISTSGGRTYYADSVKGRFTISRDNAKNTVYLQMNSLKPEDTAVYYCNALGYWRRVVDGFDYWGQGTQVTVSS”, the “polyreactivity (PSR sort gate)” value is recorded as “high polyreactivity”.

With “QVQLVESGGGLVQAGGSLRLSCAASGSIFVYNAMGWYRQAPGKEREWVAGITLIGGSTYYADSVKGRFTISRDNAKNTVYLQMNSLKPEDTAVYYCNADVAPGIFYGYDSWGQGTQVTVSS”, the “polyreactivity (PSR sort gate)” value is reported as “low polyreactivity”.

As for “QVQLVESGGGLVQAGGSLRLSCAASGSIFVYNAMGWYSPAPGQERELVAAITYSGGRTYYADSVKGRFTISRDNAKNTVYVQMNSLKPEDTAVDFCAADLTSKSSPQGYRYDYWGQGTQVTVSS”, the “polyreactivity (PSR sort gate)” value is on record as “low polyreactivity”.

Take “QVQLVESGGGLVQAGGSLRLSCAASGSIFVYYAMGWYRQAPGKERELGAAISSTGGRTYYADSVKGRFTISRDNAKNTVYLQMNSLKPEDTAVYYCAKTPTVVEFDYWGQGTQVTVAS”: the “polyreactivity (PSR sort gate)” value is given as “low polyreactivity”.

As for “QVQLVESGGGLVQAGGSLRLSCAASGSIFVYYAMGWYRQAPGKERELVAAINSSGGRTYYADSVKGRFTISRDNAKNTVYLQMNSLKPEETAVYYCAAVYRYWTSYNGRNYWGQGTQVTVSS”, the “polyreactivity (PSR sort gate)” value is listed as “high polyreactivity”.

In the case of “QVQLVESGGGLVQAGGSLRLSCAASGSIFVYYAMGWYRQAPGKERELVATISSDVSTYYSDSVKGRFTISRDNAKNTVYVQMNRLKPEDTAVDYCAATVSFDWAYSFSLDLEDDYWGQGTQVTVSS”, the “polyreactivity (PSR sort gate)” value is reported as “low polyreactivity”.

“QVQLVESGGGLVQAGGSLRLSCAASGSIFVYYAMGWYRQAPGNERELVAAISKTGGRTYYADSVKGRFTISRDNAKNTVYLQMNSLKPEDSAVYYCAARYTIRYKRYDYWGQGTQVTVSS”: the “polyreactivity (PSR sort gate)” value is “high polyreactivity”.

With “QVQLVESGGGLVQAGGSLRLSCAASGSIFWFNAMGWYRQAPGNERELVATIRYSGGSTYYADSVKGRFTISRDNAKNTVYLQMNSLKPEDTAVYYCAAVSRYSRSGYEYWGQGTQVTVSS”, the “polyreactivity (PSR sort gate)” value is given as “high polyreactivity”.

In the case of “QVQLVESGGGLVQAGGSLRLSCAASGSIFWGIAMGWYRQAPGTERELVAAISWGGGRTYYADSVKGRFTLSRDNAKNTVYLQMNSLKPEDTAVYYCNTRYPYVVSTGYDYWGQGTQVTVSS”, the “polyreactivity (PSR sort gate)” value is reported as “high polyreactivity”.

For “QVQLVESGGGLVQAGGSLRLSCAASGSIFWGNAMGCYRQAPGKERELVASISDSGGSTYADSVKGRFTISRDNAKNTVYLQMNSLKPEDTAVYYCAADDWYSAGIRNWYYGGYDYWGQGTQVTVSS”, the “polyreactivity (PSR sort gate)” value is on record as “low polyreactivity”.

For the sequence “QVQLVESGGGLVQAGGSLRLSCAASGSIFWGYAMGWYRQAPGKERELVAAITRGDTTNYADSVKGRFTISRDNAKNTVYLQMNSLKPEDTAVYYCAATPDPPHTYEYWGQGTQVTVSS”, the “polyreactivity (PSR sort gate)” value is on record as “low polyreactivity”.

Take “QVQLVESGGGLVQAGGSLRLSCAASGSIFWGYAMGWYRQAPGKERELVATIPNRGGSTYYADSVKARFTISRDNAKNTVYLQMNSLKPEDTAVYYCAVERDYWTKASYYWGRGTQVTVSS”: the “polyreactivity (PSR sort gate)” value is “low polyreactivity”.

As to “QVQLVESGGGLVQAGGSLRLSCAASGSIFWINAMGGYRQAPGKEREVVADIDVSGGSTYYADSVKGRFTISRDNAKNTVYLQMNSLKPEDTAVYYCAADAWVRTYHYGYWGQGTQVTVSS”, the “polyreactivity (PSR sort gate)” value is given as “low polyreactivity”.

For “QVQLVESGGGLVQAGGSLRLSCAASGSIFWKYAMGWYRQAPGKERELVAAISWSDGSTYYADSVKGRFTISRDNAKNTVYLQMNSLKPEVTAVYYCNTPPQWLGRYITITFDYWGQGTQVTVSS”, the “polyreactivity (PSR sort gate)” value is “low polyreactivity”.

In the case of “QVQLVESGGGLVQAGGSLRLSCAASGSIFWLYAMGWYRQAPGKERELVAAINWSTGRTYYADSVKGRFTISRDNAKNTVYLQMNSLKPEDTAVYYCAADLNWWFDYSSPDEMYYWGQGTQVNVSS”, the “polyreactivity (PSR sort gate)” value is recorded as “high polyreactivity”.

Take “QVQLVESGGGLVQAGGSLRLSCAASGSIFWLYAMGWYRQAPGKERELVASITGGGSTNYADSVKGRFTISRDNAKNTVYLQMNSLKPEDTAVYYCAKRYYRPGRKRTGLDYWGQGTQVTVSS”: the “polyreactivity (PSR sort gate)” value was “high polyreactivity”.

For “QVQLVESGGGLVQAGGSLRLSCAASGSIFWPNTMGWYRQAPGKERELVATISSGGDTSYADSVKGRFTISRDNAKNTVYLQMNSLKPEDTAVYYCAKRITVDDVHPRAQTYNYWGQGTQVTVSS”, the “polyreactivity (PSR sort gate)” value is recorded as “low polyreactivity”.

In the case of “QVQLVESGGGLVQAGGSLRLSCAASGSIFWPYAMGWYRQAPGKEREFVDAITWSGGSTYYADSVKGRFTISRDNAKNTVYLQMNSLKPEDTAVYYCAAVPYTRWKGADGDYWGQGTQVTVSS”, the “polyreactivity (PSR sort gate)” value is “high polyreactivity”.
